In patent US20220177587A1, “METHODS AND USES OF VARIANT CD80 FUSION PROTEINS AND RELATED CONSTRUCTS” (Alpine Immune Sciences, Inc., priority 2018, published 2022):
Residue numbers refer to the chain shown, from its start. Numbers in names are those of the source. Where “and” joins values, the source holds several entries; their conditions need not be identical. Equal entries are not always repeated.

B1: Q33L/E35D/M47L/A71G/F925 (protein)
chain: VIHVTKEVKEVATLSCGHNVSVEELAQTRIYWLKDKKMVLTMMSGDLNIWPEYKNRTIFDITNNLSIVILGLRPSDEGTYECVVLKYEKDASKREHLAEVTLSVKADEPKSSDKTHTCPPCPAPEAEGAPSVFLFPPKPKDTLMISRTPEVTCVVVDVSHEDPEVKFNWYVDGVEVHNAKTKPREEQYNSTYRVVSVLTVLHQDWLNGKEYKCKVSNKALPAPIEKTISKAKGQPREPQVYTLPPSREEMTKNQVSLTCLVKGFYPSDIAVEWESNGQPENNYKTTPPVLDSDGSFFLYSKLTVDKSRWQQGNVFSCSVMHEALHNHYTQKSLSLSPG
B2: H18Y/E35DN68M/L97Q (protein)
chain: B1 chain with H18Y, L33Q, L47M, V68M, G71A, S92F, L97Q
B3: A12V/S15F/Y31H/M38L/T41G/M43L/D90N/T130A/P137L/N149D/N152T (protein)
chain: VIHVTKEVKEVVTLFCGHNVSVEELAQTRIHWQKEKKLVLGMLSGDMNIWPEYKNRTIFDITNNLSIVILALRPSDEGTYECVVLKYEKNAFKREHLAEVTLSVKADFPTPSISDFEIPTSNIRRIICSASGGFPELHLSWLENGEELDAITTTVSQDPETELYAVSSKLDFNMTTNHSFMCLIKYGHLRVNQTFNWNTTKQEHFPDN
B4: V22A/L70Q/S121P (protein)
chain: VIHVTKEVKEVATLSCGHNVSAEELAQTRIYWQKEKKMVLTMMSGDMNIWPEYKNRTIFDITNNLSIVIQALRPSDEGTYECVVLKYEKDAFKREHLAEVTLSVKADFPTPSISDFEIPTPNIRRIICSTSGGFPEPHLSWLENGEELNAINTTVSQDPETELYAVSSKLDFNMTTNHSFMCLIKYGHLRVNQTFNWNTTKQEHFPDN
modifications: CD80 v33 ECD
B5: A91G/F92L/F108L/1118V/T120S (protein)
chain: B4 chain with A22V, Q70L, A91G, F92L, F108L, I118V, T120S, P121S
B6: E24G/L25P/L70Q/A91G/I118V/T120S/N152T (protein)
chain: B4 chain with A22V, E24G, L25P, A91G, I118V, T120S, P121S, N152T
modifications: CD80 v149 ECD
B7: I67F/L70R/E88G/A91G/I118V/T120S/T130A (protein)
chain: B4 chain with A22V, I67F, Q70R, E88G, A91G, I118V, T120S, P121S, T130A
modifications: CD80 v148 ECD
B8: K36G/K37Q/M38I/L40M/F59L/E81V/L85R/K89N/A91T/F92P/K93V/R94L/E99G/T130A/N149S (protein)
chain: VIHVTKEVKEVATLSCGHNVSVEELAQTRIYWQKEGQIVMTMMSGDMNIWPEYKNRTILDITNNLSIVILALRPSDEGTYVCVVRKYENDTPVLEHLAGVTLSVKADFPTPSISDFEIPTSNIRRIICSASGGFPEPHLSWLENGEELSAINTTVSQDPETELYAVSSKLDFNMTTNHSFMCLIKYGHLRVNQTFNWNTTKQEHFPDN
B9: E88D/K89R/D90K/A91G/F92Y/K93R (protein)
chain: VIHVTKEVKEVATLSCGHNVSVEELAQTRIYWQKEKKMVLTMMSGDMNIWPEYKNRTIFDITNNLSIVILALRPSDEGTYECVVLKYDRKGYRREHLAEVTLSVKAD
modifications: CD80 v48 IgV
B10: T41I/A91G (protein)
chain: B4 chain with A22V, T41I, Q70L, A91G, P121S
modifications: CD80 v44 ECD
B11: K36G/K37Q/M38I/L40M (protein)
chain: B4 chain with A22V, K36G, K37Q, M38I, L40M, Q70L, P121S
modifications: CD80 v49 ECD
B12: K36G/L40M (protein)
chain: B4 chain with A22V, K36G, L40M, Q70L, P121S
B13: R29V/M43Q/E81R/L85I/K89R/D90L/A91E/F92N/K93Q/R94G (protein)
chain: VIHVTKEVKEVATLSCGHNVSVEELAQTVIYWQKEKKMVLTMQSGDMNIWPEYKNRTIFDITNNLSIVILALRPSDEGTYRCVVIKYERLENQGEHLAEVTLSVKADFPTPSISDFEIPTSNIRRIICSTSGGFPEPHLSWLENGEELNAINTTVSQDPETELYAVSSKLDFNMTTNHSFMCLIKYGHLRVNQTFNWNTTKQEHFPDN
B14: R29D/Y31L/Q33H/K36G/M38I/T41A/M43R/M47T/E81V/L85R/K89N/A91T/F92P/K93V/R94L/I118T/N149S (protein)
chain: VIHVTKEVKEVATLSCGHNVSVEELAQTDILWHKEGKIVLAMRSGDTNIWPEYKNRTIFDITNNLSIVILALRPSDEGTYVCVVRKYENDTPVLEHLAEVTLSVKADFPTPSISDFETPTSNIRRIICSTSGGFPEPHLSWLENGEELSAINTTVSQDPETELYAVSSKLDFNMTTNHSFMCLIKYGHLRVNQTFNWNTTKQEHFPDN
B15: R29D/Y31L/Q33H/K36G/M38I/T41A/M43R/M47T/E81V/L85R/K89N/A91T/F92P/K93V/R94L/N149S (protein)
chain: B14 chain with T118I
B16: R29D/Y31L/Q33H/K36G/M38I/T41A/M42T/M43R/M47T/E81V/L85R/K89N/A91T/F92P/K93V/R94L/L148S/N149S (protein)
chain: B14 chain with M42T, T118I, L148S
B17: R29D/Y31L/Q33H/K36G/M38I/T41A/M43R/M47T/E81V/L85R/K89N/A91T/F92P/K93V/R94L/N144S/N149S (protein)
chain: B14 chain with T118I, N144S
B18: E24G/R29D/Y31L/Q33H/K36G/M38I/T41A/M43R/M47T/F59L/E81V/L85R/K89N/A91T/F92P/K93V/R94L/H96R/N149S/C182S (protein)
chain: B14 chain with E24G, F59L, H96R, T118I, C182S
B19: E88D/K89R/D90K/A91G/F92Y/K93R/N122S/N177S (protein)
chain: VIHVTKEVKEVATLSCGHNVSVEELAQTRIYWQKEKKMVLTMMSGDMNIWPEYKNRTIFDITNNLSIVILALRPSDEGTYECVVLKYDRKGYRREHLAEVTLSVKADFPTPSISDFEIPTSSIRRIICSTSGGFPEPHLSWLENGEELNAINTTVSQDPETELYAVSSKLDFNMTTSHSFMCLIKYGHLRVNQTFNWNTTKQEHFPDN

What follows are molecules tested against CD28 (Homo sapiens, UniProt P10747) (assay: Jurkat/IL2 + K562/OKT3/PD-L1 reporter assay). Details: Table E7; K562/OKT3/PD-L1 aAPC; 50 nM.
Assay type: cell-based
Parameters: host or cells: Jurkat cells expressing an IL-2-luciferase reporter
B1 was tested, and the “Fold Increase over WT CD80-IgV-Fc” value was 0.7 and the “Relative Luciferase Units (RLU), CD80-Fc Conc. 50 nM” value was 394 RLU.
With B2 the “Fold Increase over WT CD80-IgV-Fc” value was 7.7 and the “Relative Luciferase Units (RLU), CD80-Fc Conc. 50 nM” value was 4336 RLU.

The molecules below were run on allogeneic CD4+ T cells (assay: Mixed Lymphocyte Reaction (MLR), IFN-gamma). Details: Table E32; variant ECD-Fc in MLR assay; culture supernatant.
Assay type: cell-based, human
Procedure: Soluble rCD80.Fc bioactivity was tested in a human Mixed Lymphocyte Reaction (MLR). Human primary dendritic cells (DC) were generated by culturing monocytes isolated from PBMC (BenTech Bio, USA) in vitro for 7 days with 500U/ml rIL-4 (R&D Systems, USA) and 250 U/ml rGM-CSF (R&D Systems, USA) in Ex-Vivo 15 media (Lonza, Switzerland). 10,000 matured DC and 100,000 purified allogeneic CD4+ T cells (BenTech Bio, USA) were co-cultured with variant CD80 Fc fusion proteins and controls in 96 well round bottom plates in 200 μl final volume of Ex-Vivo 15 media. On day 5, IFN-gamma secretion in culture supernatants was analyzed using the Human IFN-gamma Duoset ELISA kit (R&D Systems, USA). Optical density was measured by VMax ELISA Microplate Reader (Molecular Devices, USA) and quantitated against titrated rIFN-gamma standard included in the IFN-gamma Duo-set kit (R&D Systems, USA).
For B3, the “MLR IFN-gamma levels” value was 711 pg/mL.
B4 was tested, and the “MLR IFN-gamma levels” value was 976 pg/mL.
For B5, the “MLR IFN-gamma levels” value was 665 pg/mL.
With B6 the “MLR IFN-gamma levels” value was 969 pg/mL.
For B7, the “MLR IFN-gamma levels” value was 1003 pg/mL.

Same assay, conditions: Table E33; culture supernatant
In the case of B8, the “MLR IFN-gamma levels” value is reported as 3095 pg/mL.
With B9 the “MLR IFN-gamma levels” value was 9356 pg/mL and 5922 pg/mL.
With B10 the “MLR IFN-gamma levels” value was 26052 pg/mL.
With B11 the “MLR IFN-gamma levels” value was 811 pg/mL.
For B12, the “MLR IFN-gamma levels” value was 30558 pg/mL.
In the case of B13, the “MLR IFN-gamma levels” value is reported as 11695 pg/mL.
In the case of B14, the “MLR IFN-gamma levels” value is reported as 5028 pg/mL.
B15 was tested, and the “MLR IFN-gamma levels” value was 24029 pg/mL.
In the case of B16, the “MLR IFN-gamma levels” value is reported as 17387 pg/mL.
For B17, the “MLR IFN-gamma levels” value was 7943 pg/mL.
B18 was tested, and the “MLR IFN-gamma levels” value was 13146 pg/mL.
For B19, the “MLR IFN-gamma levels” value was 6345 pg/mL.

The molecules below were run on human pan T cells (assay: Anti-CD3 coimmobilization assay, IFN-gamma). Details: Table E32; variant ECD-Fc coimmobilized with anti-CD3; culture supernatant.
Assay type: cell-based
Summary of the method: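 IFN-gamma in 3-day culture supernatants, quantified by ELISA, reflects costimulation. Human pan T cells or BC3 clone (100,000/well, Ex-Vivo 15) were placed on wells pre-adsorbed overnight with rCD80.Fc variants (1–80 nM) together with anti-CD3 OKT3 (1 nM or 4 nM), unbound protein removed.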
B3 was tested, and the “Coimmobilization with anti CD3 IFN-gamma” value was 104 pg/mL.
B4 was tested, and the “Coimmobilization with anti CD3 IFN-gamma” value was 105 pg/mL.
For B5, the “Coimmobilization with anti CD3 IFN-gamma” value was 59 pg/mL.
In the case of B6, the “Coimmobilization with anti CD3 IFN-gamma” value is reported as 101 pg/mL.
For B7, the “Coimmobilization with anti CD3 IFN-gamma” value was 62 pg/mL.

Same assay, conditions: Table E33; culture supernatant, 3 days
With B8 the “Coimmobilization with anti-CD3 IFN-gamma” value was 507 pg/mL.
With B9 the “Coimmobilization with anti-CD3 IFN-gamma” value was 1125 pg/mL and 944 pg/mL.
For B10, the “Coimmobilization with anti-CD3 IFN-gamma” value was 433 pg/mL.
For B11, the “Coimmobilization with anti-CD3 IFN-gamma” value was 427 pg/mL.
B12 was tested, and the “Coimmobilization with anti-CD3 IFN-gamma” value was 699 pg/mL.
B13 was tested, and the “Coimmobilization with anti-CD3 IFN-gamma” value was 342 pg/mL.
With B14 the “Coimmobilization with anti-CD3 IFN-gamma” value was 387 pg/mL.
With B15 the “Coimmobilization with anti-CD3 IFN-gamma” value was 405 pg/mL.
With B16 the “Coimmobilization with anti-CD3 IFN-gamma” value was 464 pg/mL.
In the case of B17, the “Coimmobilization with anti-CD3 IFN-gamma” value is reported as 400 pg/mL.
With B18 the “Coimmobilization with anti-CD3 IFN-gamma” value was 406 pg/mL.
With B19 the “Coimmobilization with anti-CD3 IFN-gamma” value was 773 pg/mL.
